Measured values taken from the supplement of paper PMC11865577.

Assays:
Test in all cases: pull-down binding Z-score (relative to library population); higher = stronger binding
[1] = test system: TO-N3-2 (biotin conjugate); settings: RNA library: Library-2
Method in brief: (§1)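 An RNA library (1 μg) carrying a Cy5 or Cy3 end label was heat-folded in phosphate/NaCl/KCl buffer, then incubated for 60 min at 25 °C with streptavidin beads loaded with 100 pmol of biotin-conjugated small molecule. The beads were washed three times, and bound RNA was released in hot SDS and hybridised to a DNA barcode microarray for 20 h at 55.5 °C. Each binding score was derived by subtracting the signal from beads without compound, averaging the barcoded replicate probes after removing the highest and lowest, and expressing the result as a Z-score relative to the library mean and standard deviation.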

TO-N3 (biotin conjugate) = settings: RNA library: Library-2
Method in brief: as §1

[2] = test system: TO-3-N3 (biotin conjugate); settings: RNA library: Library-2
Method in brief: as §1

[3] = test system: TO-3-N3-2 (biotin conjugate); settings: RNA library: Library-2
Method in brief: as §1

[4] = test system: G-clamp-N3 (biotin conjugate); settings: RNA library: Library-1 (pre-miRNA loops + repeats)
Method in brief: as §1

Sequence | pull-down binding Z-score [1] | pull-down binding Z-score (TO-N3 (biotin conjugate)) | pull-down binding Z-score [2] | pull-down binding Z-score [3] | pull-down binding Z-score [4]
AGGACGGUGCGCCUUGUUUCCC [hsa-mir-3132] | 0.529 | 0.0408 | -0.376 | -0.0152 | -1.1
AGGAGAAGGUGAGACCAAUGUCCUGGGUGCCACUCCU [hsa-mir-6124] | -0.139 | -0.503 | -0.524 | -0.00463 | 0.515
AGGAGGGUCC [hsa-mir-3141] | 1.02 | 0.766 | 0.419 | 0.356 | -0.0548
AGGAGUUCACU [hsa-mir-1183] | 0.0749 | -0.253 | -0.276 | -0.383 | -0.952
AGGCAACAUGGCCGAGAGGCCGGGGCCU [hsa-mir-564] | 0.551 | -0.12 | -0.144 | -0.533 | 2.93
AGGCACAUAUGUGAACAUUGUACCA [hsa-mir-5707] | -0.108 | 0.0876 | 0.023 | 0.00393 | -0.48
AGGCAUGGGUGGCU [hsa-mir-8085] | 0.625 | 0.428 | 0.237 | 0.062 | 0.379
AGGCAUUAGGAUCCUUAUUCUUGCCU [hsa-mir-4788] | -0.364 | -0.559 | -0.238 | -0.442 | -0.175
AGGCCAUACGUGUUGGAGAUU [hsa-mir-4461] | 0.79 | 0.792 | 0.627 | 0.301 | 0.253
AGGCCGACGAGCAGCGCAUCCUCUUACCCGGCUA [hsa-mir-138-2] | 1.95 | 1.11 | 0.181 | 0.171 | -1.48
AGGCCGUUGCCAAUCAGAGAACGGCUA [hsa-mir-138-1] | 1.43 | 1.47 | 1.23 | 0.52 | -0.677
AGGCCUGAGUCUCUCUGCUGCAGAUGGGCUC [hsa-mir-422a] | 1.29 | 0.668 | -0.112 | -0.0262 | -0.38
AGGCUCUGCAAGAUCAACCGAGCA [hsa-mir-330] | 0.739 | 0.492 | 0.196 | 0.141 | -0.474
AGGCUCUGGGUCCGGCUUACUCCCUAGCUUACUGUCCUCAGAACCC [hsa-mir-6071] | 0.924 | 0.311 | -0.173 | 0.226 | -0.386
AGGCUGGUCUCAAACUCCU [hsa-mir-5096] | 0.128 | -0.0712 | -0.118 | -0.228 | -0.82
AGGCUGUCUUCAUUCCCUCUUGACCACCC [hsa-mir-6795] | 0.709 | 1.29 | 1.19 | 0.213 | -1.03
AGGCUUGGCACUUGAGGGAAAGCCU [hsa-mir-8059] | 0.469 | 0.646 | 0.451 | 0.0114 | 2.67
AGGGACCCCCGGAGUCUGUCACGGUCUCA [hsa-mir-6784] | 0.955 | 0.353 | -0.0169 | 0.215 | -0.402
AGGGCAAGUCCAAAGGUAUACAGUUGGUCUGUUCA [hsa-mir-7107] | 0.381 | -0.107 | -0.459 | -0.208 | 1.04

Sequence | pull-down binding Z-score [1] | pull-down binding Z-score (TO-N3 (biotin conjugate)) | pull-down binding Z-score [2] | pull-down binding Z-score [3] | pull-down binding Z-score [4]
AGGGCAGCUCCCAUGACUGCCUGACCGC [hsa-mir-6880] | 1.4 | 0.663 | 0.15 | 0.266 | -0.549
AGGGCAGGGGUGUGGCU [hsa-mir-4751] | 1.93 | 2.8 | 3.21 | 2.67 | 0.725
AGGGCCUUCUGAGCCCAGGUCCG [hsa-mir-6716] | 1.46 | 0.886 | 0.611 | 0.018 | 0.286
AGGGCUGGGAUUACUAAAGCCCU [hsa-mir-1266] | -0.335 | -0.158 | -0.0287 | -0.105 | 1.24
AGGGGACACGGGCAAAGACUUGGGGGUUCCUGGGACCCUCAGACGUGUGUCCUCU [hsa-mir-877] | 0.581 | 0.632 | 0.252 | 0.297 | 0.447
AGGGGUCAUAUCUCUUCUCAGGGAAAGCAGGAGCCCUUCAGCAGGGUCAGGGCCCCU [hsa-mir-6891] | 0.317 | 0.761 | 0.705 | 0.263 | 1.5
AGGGUGGAGCCCACUGUGGCUCCUGACUCAGCCCU [hsa-mir-6893] | 0.419 | -0.0778 | -0.0543 | 0.0411 | -0.967
AGGUAGUGAUAUGUGCAUCUACU [hsa-mir-17] | 0.759 | 0.31 | 0.0812 | 0.142 | -0.805
AGGUAGUGUGAUUACCCAACCUACU [hsa-mir-93] | 0.272 | 0.0315 | -0.148 | -0.179 | 0.373
AGGUAGUGUUUAGUUAUCUACU [hsa-mir-20a] | -0.218 | -0.285 | -0.264 | 0.257 | 1.28
AGGUCUCCUGGCAU [hsa-mir-4256] | -0.096 | -0.164 | -0.274 | -0.439 | -0.698
AGGUGCUAGGUCGGCCUCGGC [hsa-mir-5787] | 1.47 | 1.01 | 0.284 | 0.351 | 1.28
AGGUGGAAAGGGAGCAGGAGCAUCGUCUUUAAGAGGGUCAGGUACCUUUGCUCUUA [hsa-mir-6083] | 1.33 | 0.724 | -0.0151 | 0.394 | 0.244
AGGUUCUGCUGGCUGAGAACCU [hsa-mir-3667] | 0.149 | -0.17 | -0.215 | -0.106 | 2.19
AGGUUGGCUGGGCCAGGCCUGACCU [hsa-mir-4722] | 1.16 | 0.435 | 0.0532 | -0.00273 | 0.156
AGGUUUAUGACUGGGCAUUUCUCACCCAAUGCCCAAUAUUGAACUU [hsa-mir-4431] | -0.666 | -0.752 | -0.564 | -0.213 | -0.59
AGGUUUGUGUCCAAUACAGUCCACACCU [hsa-mir-3200] | -0.572 | -0.879 | -0.745 | -0.367 | -0.861
AGUAGCUGGGAAUACAGGUGUGUGCCACCAUGCCUCUACAAGCUACC [hsa-mir-7851] | 0.445 | -0.0861 | -0.469 | -0.134 | -0.609
